Laboratory results published in PMC6471057.
Where two headings read alike, the source gives them in different places.

Experiments:
[1] = molecular target: HLA-E*01:01 on T2E cells (human | human (endogenous in T2)); experiment: flow cytometry on cells; peptide stabilization on T2E cells (peptide 18 h at 37 °C), washed, without Brefeldin A; HLA-E surface level (mAb 3D12) at 0, 2, 4 and 6 h at 37 °C
[2] = molecular target: HLA-E*01:01 on T2E cells (human | human (endogenous in T2)); experiment: flow cytometry on cells; peptide stabilization on T2E cells (peptide 18 h at 37 °C), then 1 h with Brefeldin A 10 µg/mL, washed; HLA-E surface level (mAb 3D12) at 0, 2, 4 and 6 h at 37 °C; decrease taken as dissociation of the peptide from HLA-E
[3] = molecular target: HLA-E*01:01 on T2E cells (human | human (endogenous in T2)); experiment: as above; remark: listed apart in the source

Binder | DT50 (without Brefeldin A) [1] [h] | DT50 (incubation time for 50% of the p:HLA-E complexes to decay, with Brefeldin A) [2] [h] | reduction in HLA-E surface expression after 6 h [3] [%] | DT50 (incubation time for 50% of the p:HLA-E complexes to decay, with Brefeldin A) [3] [h]
VMAPRTLIL [VIL9 peptide] | > 6 | > 6 | 23 | –
LVDSGAQVSVVHPNL [LNL15 peptide] | > 6 | > 4 | – | < 6
SKGKIYPVGY [SY10 peptide] | > 6 | > 6 | – | –

Second part, the binder after the results:

DT50 (without Brefeldin A) [1] [h] | DT50 (incubation time for 50% of the p:HLA-E complexes to decay, with Brefeldin A) [2] [h] | reduction in HLA-E surface expression after 6 h [3] [%] | DT50 (incubation time for 50% of the p:HLA-E complexes to decay, with Brefeldin A) [3] [h] | Binder
> 6 | > 6 | – | – | LGHPDTLNQGEFKEL [LEL15 peptide]
> 6 | > 6 | 1.5 | – | DVHDGKVVSTHEQ [DQ13 peptide]
